The results in this text go back to publication PMC9019507, “OAT10/SLC22A13 Acts as a Renal Urate Re-Absorber: Clinico-Genetic and Functional Analyses With Pharmacological Impacts” (Frontiers in Pharmacology, 2022).

For the data set, the system named is T1, O=c1[nH]c(=O)c2[nH]c(=O)[nH]c2[nH]1.
T1 construct: full-length human OAT10 wild-type, EGFP-fused (pEGFP-N1)
As to the kind of experiment: cells, lysate or membranes. It is filed as cell-based, Homo sapiens. Conditions: Cl^-.

OAT10/SLC22A13 (Homo sapiens), sequence (chain, as listed by the source): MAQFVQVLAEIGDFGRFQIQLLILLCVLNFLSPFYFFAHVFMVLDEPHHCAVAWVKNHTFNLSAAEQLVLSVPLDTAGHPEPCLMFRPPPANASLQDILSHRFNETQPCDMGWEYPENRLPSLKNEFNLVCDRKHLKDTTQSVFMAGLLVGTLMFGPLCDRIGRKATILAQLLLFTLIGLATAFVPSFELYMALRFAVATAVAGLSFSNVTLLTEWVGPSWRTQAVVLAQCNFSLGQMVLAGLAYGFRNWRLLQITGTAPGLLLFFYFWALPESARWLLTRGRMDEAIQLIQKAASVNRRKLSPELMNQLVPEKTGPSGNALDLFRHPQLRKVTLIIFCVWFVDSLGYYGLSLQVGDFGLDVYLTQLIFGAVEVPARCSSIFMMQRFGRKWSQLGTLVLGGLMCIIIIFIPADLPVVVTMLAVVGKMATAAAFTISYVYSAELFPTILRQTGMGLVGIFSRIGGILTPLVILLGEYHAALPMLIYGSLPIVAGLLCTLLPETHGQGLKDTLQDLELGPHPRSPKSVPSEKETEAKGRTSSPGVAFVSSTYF

Take OAT10/SLC22A13 (Homo sapiens): the Km (in general, the substrate concentration at which the rate is half of its maximum) stood at 558 µM.
